Data from patent US20150258192A1, “COMPOSITIONS AND METHODS FOR PREVENTING OR TREATING CHRONIC LUNG ALLOGRAFT DYSFUNCTION (CLAD) AND IDIOPATHIC PULMONARY FIBROSIS (IPF)” (priority 2014, published 2015).
No end group written: not given here.

Key:
Assay in all cases: Kinase Profiling Assay
Type in all cases: biochemical
Conditions in all cases: peptide 100 μM
EphA4(h) = EphA4(h) (Homo sapiens, UniProt P54764)
How it was run: (§1)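 Radiometric filter-binding format: cationic substrate takes up labeled phosphate from ATP unless the inhibitor peptide blocks the kinase. Substrate bound to an anionic filter, scintillation-counted, normalized to 100% activity control. Duplicates; part of a 266-kinase selectivity panel for MK2 peptides.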

TrkB(h) = TrkB(h) (Homo sapiens, UniProt Q16620)
How it was run: as §1

Aurora-B(h) = Aurora-B(h) (Homo sapiens, UniProt Q96GD4)
Aurora-B(h), sequence (Q96GD4 whole entry): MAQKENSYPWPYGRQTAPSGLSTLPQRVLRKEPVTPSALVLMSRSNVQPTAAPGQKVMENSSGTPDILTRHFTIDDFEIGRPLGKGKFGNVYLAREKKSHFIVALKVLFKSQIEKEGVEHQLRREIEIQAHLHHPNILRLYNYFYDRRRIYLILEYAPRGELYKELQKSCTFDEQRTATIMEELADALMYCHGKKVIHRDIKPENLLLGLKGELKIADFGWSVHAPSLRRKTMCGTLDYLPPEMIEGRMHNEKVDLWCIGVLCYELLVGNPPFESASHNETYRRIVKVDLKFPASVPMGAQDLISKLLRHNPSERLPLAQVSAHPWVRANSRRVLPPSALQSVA
How it was run: as §1

PrKX(h) = molecular target: T1, PrKX(h) (Homo sapiens, UniProt P51817)
T1 sequence (P51817 1-358): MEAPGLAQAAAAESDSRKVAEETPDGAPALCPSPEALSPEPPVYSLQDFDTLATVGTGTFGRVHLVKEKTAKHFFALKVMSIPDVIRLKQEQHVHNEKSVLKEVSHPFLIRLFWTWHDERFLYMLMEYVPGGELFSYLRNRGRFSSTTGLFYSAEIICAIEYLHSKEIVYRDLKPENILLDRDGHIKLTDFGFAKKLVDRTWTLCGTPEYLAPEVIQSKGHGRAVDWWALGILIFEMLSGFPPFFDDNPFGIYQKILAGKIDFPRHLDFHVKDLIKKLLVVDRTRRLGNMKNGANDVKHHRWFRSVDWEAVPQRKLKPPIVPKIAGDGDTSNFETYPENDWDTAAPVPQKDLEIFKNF
How it was run: as §1

CaMKIIγ(h) = CaMKIIγ(h) (Homo sapiens, UniProt Q13555)
CaMKIIγ(h), sequence (Q13555 whole entry): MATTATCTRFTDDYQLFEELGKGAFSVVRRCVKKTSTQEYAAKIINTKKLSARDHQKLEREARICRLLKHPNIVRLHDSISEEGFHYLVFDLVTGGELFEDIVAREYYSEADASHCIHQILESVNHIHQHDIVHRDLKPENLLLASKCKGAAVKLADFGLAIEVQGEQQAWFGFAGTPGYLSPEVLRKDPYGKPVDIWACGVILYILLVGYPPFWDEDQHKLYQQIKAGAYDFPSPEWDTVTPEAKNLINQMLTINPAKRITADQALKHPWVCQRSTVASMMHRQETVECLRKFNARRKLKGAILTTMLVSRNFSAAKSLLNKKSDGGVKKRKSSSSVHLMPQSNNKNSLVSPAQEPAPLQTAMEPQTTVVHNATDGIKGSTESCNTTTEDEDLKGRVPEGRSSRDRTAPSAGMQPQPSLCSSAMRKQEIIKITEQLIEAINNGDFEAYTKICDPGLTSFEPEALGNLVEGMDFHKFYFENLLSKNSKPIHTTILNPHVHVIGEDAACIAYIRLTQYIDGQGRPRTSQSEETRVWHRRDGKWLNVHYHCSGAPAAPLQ
How it was run: as §1

TSSK1(h) = molecular target: T2, TSSK1(h) (Homo sapiens, UniProt Q9BXA7)
T2 sequence (Q9BXA7 1-367): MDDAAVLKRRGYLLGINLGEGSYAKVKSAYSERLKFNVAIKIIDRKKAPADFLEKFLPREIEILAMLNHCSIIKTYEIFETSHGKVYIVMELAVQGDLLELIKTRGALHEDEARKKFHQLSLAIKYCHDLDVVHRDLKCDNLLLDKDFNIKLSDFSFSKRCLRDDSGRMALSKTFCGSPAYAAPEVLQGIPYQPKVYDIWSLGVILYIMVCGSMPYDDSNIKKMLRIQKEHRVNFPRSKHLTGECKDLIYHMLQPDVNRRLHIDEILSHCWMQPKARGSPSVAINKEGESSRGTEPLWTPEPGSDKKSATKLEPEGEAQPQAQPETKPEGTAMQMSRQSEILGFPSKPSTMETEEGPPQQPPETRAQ
How it was run: as §1

Pim-2(h) = Pim-2(h) (Homo sapiens, UniProt Q9P1W9)
Pim-2(h), sequence (Q9P1W9 whole entry): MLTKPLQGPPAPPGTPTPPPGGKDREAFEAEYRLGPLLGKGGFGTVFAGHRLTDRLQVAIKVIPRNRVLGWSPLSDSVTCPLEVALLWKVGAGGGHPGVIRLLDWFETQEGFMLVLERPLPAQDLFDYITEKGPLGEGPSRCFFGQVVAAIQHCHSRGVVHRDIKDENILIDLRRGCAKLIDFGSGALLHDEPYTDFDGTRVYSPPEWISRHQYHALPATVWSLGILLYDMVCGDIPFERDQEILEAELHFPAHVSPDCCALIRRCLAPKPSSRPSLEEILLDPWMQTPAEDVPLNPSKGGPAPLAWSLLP
How it was run: as §1

Mer(h) = molecular target: T3, Mer(h) (Homo sapiens, UniProt Q12866)
T3 construct: purchased Millipore
T3 sequence (Q12866 21-999): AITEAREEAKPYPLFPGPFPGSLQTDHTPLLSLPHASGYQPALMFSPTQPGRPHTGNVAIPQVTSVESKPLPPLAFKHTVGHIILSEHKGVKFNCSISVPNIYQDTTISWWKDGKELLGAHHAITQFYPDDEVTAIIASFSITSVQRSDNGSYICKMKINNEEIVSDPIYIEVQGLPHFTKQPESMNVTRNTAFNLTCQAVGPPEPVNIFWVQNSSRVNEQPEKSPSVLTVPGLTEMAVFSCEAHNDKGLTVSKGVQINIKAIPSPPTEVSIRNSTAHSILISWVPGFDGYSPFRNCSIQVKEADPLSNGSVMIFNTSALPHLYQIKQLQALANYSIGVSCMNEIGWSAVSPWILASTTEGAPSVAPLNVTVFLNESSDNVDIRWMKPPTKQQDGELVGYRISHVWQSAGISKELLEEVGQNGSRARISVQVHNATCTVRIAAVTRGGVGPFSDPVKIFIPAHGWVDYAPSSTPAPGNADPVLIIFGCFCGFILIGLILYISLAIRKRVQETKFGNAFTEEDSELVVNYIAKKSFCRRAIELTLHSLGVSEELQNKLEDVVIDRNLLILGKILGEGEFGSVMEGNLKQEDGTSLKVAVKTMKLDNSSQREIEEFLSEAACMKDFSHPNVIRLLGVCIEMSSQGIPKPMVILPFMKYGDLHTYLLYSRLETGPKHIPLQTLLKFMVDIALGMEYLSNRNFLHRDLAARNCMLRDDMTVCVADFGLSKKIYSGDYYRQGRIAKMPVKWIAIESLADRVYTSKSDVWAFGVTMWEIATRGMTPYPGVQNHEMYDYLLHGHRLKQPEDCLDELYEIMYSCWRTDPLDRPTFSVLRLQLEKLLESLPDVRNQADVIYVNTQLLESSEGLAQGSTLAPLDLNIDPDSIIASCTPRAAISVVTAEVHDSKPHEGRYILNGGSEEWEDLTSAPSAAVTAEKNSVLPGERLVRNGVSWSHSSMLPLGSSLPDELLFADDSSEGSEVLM
How it was run: as §1

Src(T341M)(h) = molecular target: T4, Src(T341M)(h) (Homo sapiens, UniProt P12931, T341M)
T4 construct: purchased Millipore
How it was run: as §1

ZIPK(h) = ZIPK(h) (Homo sapiens, UniProt O43293)
ZIPK(h), sequence (O43293 whole entry): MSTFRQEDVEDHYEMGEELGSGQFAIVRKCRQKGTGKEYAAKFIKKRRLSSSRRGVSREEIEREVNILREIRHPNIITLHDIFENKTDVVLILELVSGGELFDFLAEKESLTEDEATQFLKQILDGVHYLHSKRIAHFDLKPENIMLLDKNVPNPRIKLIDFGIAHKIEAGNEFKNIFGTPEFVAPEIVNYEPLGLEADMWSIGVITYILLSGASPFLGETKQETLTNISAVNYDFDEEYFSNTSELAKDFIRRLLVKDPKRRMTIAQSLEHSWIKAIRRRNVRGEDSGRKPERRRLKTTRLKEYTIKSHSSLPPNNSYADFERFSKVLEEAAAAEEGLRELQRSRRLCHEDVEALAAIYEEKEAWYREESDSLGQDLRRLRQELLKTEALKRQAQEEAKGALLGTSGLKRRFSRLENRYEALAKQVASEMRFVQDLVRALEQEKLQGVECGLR
How it was run: as §1

Met(h) = molecular target: T5, Met(h) (Homo sapiens, UniProt P08581)
T5 construct: purchased Millipore
T5 sequence (P08581 25-1390): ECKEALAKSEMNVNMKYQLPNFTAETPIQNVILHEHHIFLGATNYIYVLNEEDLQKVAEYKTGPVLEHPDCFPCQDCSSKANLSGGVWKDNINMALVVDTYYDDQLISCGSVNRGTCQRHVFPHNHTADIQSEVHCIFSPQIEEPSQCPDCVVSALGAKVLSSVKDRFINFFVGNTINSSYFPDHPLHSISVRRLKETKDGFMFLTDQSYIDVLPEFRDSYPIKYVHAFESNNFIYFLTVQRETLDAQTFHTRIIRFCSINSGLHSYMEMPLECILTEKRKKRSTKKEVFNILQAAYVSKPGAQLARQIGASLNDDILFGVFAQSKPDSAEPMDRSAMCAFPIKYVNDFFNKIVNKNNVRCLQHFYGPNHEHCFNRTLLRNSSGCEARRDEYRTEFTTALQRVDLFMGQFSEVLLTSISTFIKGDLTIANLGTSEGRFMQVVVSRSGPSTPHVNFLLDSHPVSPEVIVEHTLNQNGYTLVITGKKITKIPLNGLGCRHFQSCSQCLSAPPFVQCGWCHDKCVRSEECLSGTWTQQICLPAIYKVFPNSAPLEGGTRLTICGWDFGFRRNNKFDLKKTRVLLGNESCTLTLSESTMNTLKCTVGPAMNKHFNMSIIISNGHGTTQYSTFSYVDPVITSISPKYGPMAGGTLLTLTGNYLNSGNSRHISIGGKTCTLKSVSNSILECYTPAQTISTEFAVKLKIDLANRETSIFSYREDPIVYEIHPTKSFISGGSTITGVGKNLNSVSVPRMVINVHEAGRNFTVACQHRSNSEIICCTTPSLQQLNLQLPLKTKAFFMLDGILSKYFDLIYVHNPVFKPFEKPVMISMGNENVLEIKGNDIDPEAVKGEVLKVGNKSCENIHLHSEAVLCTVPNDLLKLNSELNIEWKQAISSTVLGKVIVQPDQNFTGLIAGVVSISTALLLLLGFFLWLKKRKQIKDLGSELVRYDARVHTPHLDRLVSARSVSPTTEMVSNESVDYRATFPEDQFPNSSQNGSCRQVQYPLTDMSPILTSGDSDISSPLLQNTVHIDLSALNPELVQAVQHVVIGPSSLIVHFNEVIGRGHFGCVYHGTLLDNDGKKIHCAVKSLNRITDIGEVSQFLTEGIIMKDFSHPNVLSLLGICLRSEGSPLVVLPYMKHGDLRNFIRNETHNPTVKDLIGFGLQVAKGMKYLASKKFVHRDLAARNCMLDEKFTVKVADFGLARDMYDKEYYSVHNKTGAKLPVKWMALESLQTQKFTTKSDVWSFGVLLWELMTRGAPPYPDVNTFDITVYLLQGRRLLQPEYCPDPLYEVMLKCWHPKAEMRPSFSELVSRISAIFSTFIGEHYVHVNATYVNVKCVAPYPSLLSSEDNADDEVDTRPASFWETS
How it was run: as §1

BRK(h) = BRK(h) (Homo sapiens, UniProt Q13882)
BRK(h), sequence (Q13882 whole entry): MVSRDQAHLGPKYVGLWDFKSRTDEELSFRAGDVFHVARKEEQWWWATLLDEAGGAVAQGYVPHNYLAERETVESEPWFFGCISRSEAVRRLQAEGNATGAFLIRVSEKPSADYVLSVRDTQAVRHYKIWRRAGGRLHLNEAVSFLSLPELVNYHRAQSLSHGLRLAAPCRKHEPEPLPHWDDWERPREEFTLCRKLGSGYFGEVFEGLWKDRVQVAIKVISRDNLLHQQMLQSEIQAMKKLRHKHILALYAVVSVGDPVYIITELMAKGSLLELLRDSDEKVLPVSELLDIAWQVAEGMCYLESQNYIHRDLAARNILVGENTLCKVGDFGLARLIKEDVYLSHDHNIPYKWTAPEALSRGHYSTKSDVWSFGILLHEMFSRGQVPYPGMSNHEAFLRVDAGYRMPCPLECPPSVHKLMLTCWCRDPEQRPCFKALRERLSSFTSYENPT
How it was run: as §1

CaMKI(h) = CaMKI(h) (Homo sapiens, UniProt Q14012)
How it was run: as §1

Abl(T315I)(h) = Abl(T315I)(h) (Homo sapiens, UniProt P00519, T315I)
How it was run: as §1

EGFR(L858R)(h) = EGFR(L858R)(h) (Homo sapiens, UniProt P00533, L858R)
How it was run: as §1

EphA4(h), sequence (P54764 20-986): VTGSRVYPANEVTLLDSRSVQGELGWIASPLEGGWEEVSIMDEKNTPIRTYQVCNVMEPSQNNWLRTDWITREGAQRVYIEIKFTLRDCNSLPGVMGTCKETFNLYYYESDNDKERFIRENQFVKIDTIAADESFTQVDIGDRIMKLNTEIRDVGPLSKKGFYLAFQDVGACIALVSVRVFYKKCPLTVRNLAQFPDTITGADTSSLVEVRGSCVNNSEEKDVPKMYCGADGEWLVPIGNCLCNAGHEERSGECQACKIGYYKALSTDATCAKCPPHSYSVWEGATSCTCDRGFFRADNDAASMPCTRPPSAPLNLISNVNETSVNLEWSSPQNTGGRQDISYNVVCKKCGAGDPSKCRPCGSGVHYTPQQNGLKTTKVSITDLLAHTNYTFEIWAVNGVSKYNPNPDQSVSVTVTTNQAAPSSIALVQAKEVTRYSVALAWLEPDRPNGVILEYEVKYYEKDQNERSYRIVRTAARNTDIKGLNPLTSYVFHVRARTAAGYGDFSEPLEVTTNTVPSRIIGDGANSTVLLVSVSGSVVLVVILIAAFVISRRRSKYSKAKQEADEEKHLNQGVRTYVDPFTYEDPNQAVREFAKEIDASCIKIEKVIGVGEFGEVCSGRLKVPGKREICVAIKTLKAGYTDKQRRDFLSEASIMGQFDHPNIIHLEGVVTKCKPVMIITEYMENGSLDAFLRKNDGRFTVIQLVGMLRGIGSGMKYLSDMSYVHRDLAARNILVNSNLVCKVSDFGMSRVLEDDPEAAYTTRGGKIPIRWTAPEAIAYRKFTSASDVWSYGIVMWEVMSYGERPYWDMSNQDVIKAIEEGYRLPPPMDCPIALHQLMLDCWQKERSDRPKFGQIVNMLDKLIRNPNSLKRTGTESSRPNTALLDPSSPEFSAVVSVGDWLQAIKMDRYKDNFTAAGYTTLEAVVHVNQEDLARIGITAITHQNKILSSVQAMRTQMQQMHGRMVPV

Sequence	% activity (EphA4(h)) [%]	% activity (TrkB(h)) [%]	% activity (Aurora-B(h)) [%]	% activity (PrKX(h)) [%]	% activity (CaMKIIγ(h)) [%]	% activity (TSSK1(h)) [%]	% activity (Pim-2(h)) [%]	% activity (Mer(h)) [%]	% activity (Src(T341M)(h)) [%]	% activity (ZIPK(h)) [%]	% activity (Met(h)) [%]	% activity (BRK(h)) [%]	% activity (CaMKI(h)) [%]	% activity (Abl(T315I)(h)) [%]	% activity (EGFR(L858R)(h)) [%]
FAKLAARLYRKALARQLGVAA [MMI-0300]	88	5	128	61	5	79	76	52	70	28	65	35	1	97	
HRRIKAWLKKIKALARQLGVAA (Mammal) [MMI-0500]	48	12	5	57	3	46	46	17	59	1	27	41	-1	16	26
KAFAKLAARLYRKALARQLGVAA [MMI-0400]	65	8	150	76	3	79	92	50	76	13	62	18	0		52
YARAAARQARAKALARQLGVAA [MMI-0100]	110	4		84		99		47				70		98	76
YARAAARQARAKALNRQLGVA (Mammal) [MMI-0200]	127	7	166		94	98	74	90	56	67	71	127	21	108	120
